In the nanobody polyreactivity screen of Harvey et al. (2022):

Test: yeast display, Sf9 membrane polyspecificity reagent, FACS + sequencing; frameworks hold sequencing errors
Summary of the method: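 After 36–48 hours of galactose induction, yeast (Saccharomyces cerevisiae BJ5465) displaying a synthetic nanobody library were stained at 4 °C for 1 hour with 10% biotinylated, detergent-solubilized Sf9 membrane reagent. Streptavidin microbeads enriched the stained cells before FACS sorting into low and high (top ~1%) gates on anti-HA and streptavidin fluorescence. Each clone's polyreactivity label reflects its gate of origin.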

Sequence	polyreactivity (PSR sort gate)
QVQLVDSGGGLVQAGGSHRLSCAASGRIFGDNAMGWYRQAPGKERELVAAIDWNDGNTYYADSVKGRFTISRDNANNTVYLQMNSLKPEDTAVYYCNTAGQDAEYDYWGQGTQVTVSS	low polyreactivity
QVQLVDSGGGLVQAGGSIRLSCSPSGGTFGLNSMGWYRQAPGQERELVADIDGRGGSTYYADSVKGRFTISRDNAKNTVYLQMNRLKPEDPAVYYCADLAPFLSVPSELDYWRQGTQVTVSS	low polyreactivity
QVQLVDSGGGLVQAGGSLPLSCAASGRIIAHYALGWYRQAPGKERELVAAIRRSGVSTYYADSVKGRFTISRDNANNTVYLQMHSLKPEDTAVYYCNARAYVSPYDYWGHGTQVTVSS	low polyreactivity
QVQLVDSGGGLVQAGGSLPLSCAASGSIFSFYAMGWYRQAPGKERELVAAISGNGGRTYYADSVKGRFTISRDNAKNSVYLQMNSLKPEDTAVYYCAAYNSPRLCYWGQGTQVTVSS	high polyreactivity
QVQLVDSGGGLVQAGGSLRFSCAASGSIFYSNAMGWYRQAPGKERELVAAISDGGTSTYYADSVKVRFTISRDNAKNTVYLQMNSLKPEDTAVYYCAAESTLQDWNWYKYYYWGQGTQVTVSS	low polyreactivity
QVQLVDSGGGLVQAGGSLRISCAASGRTFYWYAMGWSRQAPGKEREFVAAISWNVGSTYYADSVKGRFTISRDHAKNTVYLQMNSLKPEDTAVYYCAAELGYPYSTYADWYYYWGQGTQVTVSS	high polyreactivity
QVQLVDSGGGLVQAGGSLRLICAASGSTFARNTMGWYRQAPGKETELVAVISRGDSTYYADSVKGRFTISRDNAKNSVYLQMNSLKPEDTAVNYCIAYLRYAYPSKMDYWGQGTQVTVSS	low polyreactivity
QVQLVDSGGGLVQAGGSLRLICAASGSTFNYYAMGSYRQAPGKERELVAAISYSSGRTYYADSVKGRFTISRDNSKNTVYLQMNSMKPEDTAVYYCAADRYMVSSSVHSFGYWGQGTQVTVSS	high polyreactivity
QVQLVDSGGGLVQAGGSLRLSCAASGFIFIFYTMGWYRQAPGNERELVAAISRSGGSTYYADSVKGRFTISRDNAKNTVYLQMNSLKPEDTAVYYCAARAKLSHRWRSYYWGQGTQVTVSS	high polyreactivity
QVQLVDSGGGLVQAGGSLRLSCAASGFIFLNNAMGWYRQAPGKERELVAAITWSGGSTYYADSVKGRFTISRDNAKNTVYLQMNSLKPEDTAVYYCAADGWLYYGVGYWGQGTQVTVSS	low polyreactivity
QVQLVDSGGGLVQAGGSLRLSCAASGFIFLTYGMGWYRQAPGKERELVATITSVGSTNYADSVKGRFTISRDNAKNTVYLQMNSLKPEDTAVYYCAAVSTYHVEFDFWAEYGYWGQGTQVTVSS	low polyreactivity
QVQLVDSGGGLVQAGGSLRLSCAASGFIFPSYVMGWYRQAPGKERELVATISRTGGSTYYADSVKGRYTISRDNAKNTVYLQMNSLKPEYTAVYFCAAYRYSYLQLMDYWGQGTQVTVSS	high polyreactivity
QVQLVDSGGGLVQAGGSLRLSCAASGFIFRYYAMGWYRQAPGTERELVAAISRSGGSTYYADSVKGRFTISRDNAKNTVYLQMYSLKPEDTAVYYCNRGDVIGRQYDSAYGYWGQGTQVTVSS	high polyreactivity
QVQLVDSGGGLVQAGGSLRLSCAASGFSLSINAMGWYRQAPGKERELVDGISWSGGSTYYADSVKGRFTISRDNAKTTFYLQMNSLKTEDTAVYYCNADLFLFVYFGQYYWRTYNYWGQGTQVTVSS	low polyreactivity
QVQLVDSGGGLVQAGGSLRLSCAASGFTFTRYAMGWYRQAPGKERELVADITRGGSTNYADSVKARFTISRDNAKNTVYLQMNSLKPEDTAVYYCNAGAITNYDYCGQGTQVTVSS	high polyreactivity
QVQLVDSGGGLVQAGGSLRLSCAASGFTFYSYAMGWYRPAPGKERELFAAISKSGGRSYYADSVKGRFTISRDNAKNTVYLQMKSLKPEDTGVYYCNTYGAFRSLETYDYWGQGSQVTVSS	high polyreactivity
QVQLVDSGGGLVQAGGSLRLSCAASGFTIYANAMGWYRQAPGKERELVAAITSSSGRTYYADSVKGRFTISRDNAKNTVYLQMNSLIPEETAVYYCAARWSPYDYWGQGTQVTVSS	low polyreactivity
QVQLVDSGGGLVQAGGSLRLSCAASGIIFVENAMGWYRQAPGKEREMVAAISWDGGSTYYADSVKGRFTISRDNAKNTVYLQMNSLKPEDTAVYYCAADLTISYSQEYYYWGQGTQVTVSS	low polyreactivity
QVQLVDSGGGLVQAGGSLRLSCAASGIISIVYAMGWYRQAPGKERELVAAISSGGSTYYADSVKGRFTISRDNAKNTVYLQMNRLKPEDTAVYYCATAYRYPPNAYFQRMDSWGQGTQVTVSS	high polyreactivity
QVQLVDSGGGLVQAGGSLRLSCAASGITFKRYAMGWYRQAPGKERELVAAITGIGGSTYYADSVKGRFTISSDNAKNTVYLQMNSLKPEDTAVYYCAARNNKKYDYWGQGTQVTVSS	high polyreactivity
QVQLVDSGGGLVQAGGSLRLSCAASGITFSWYAMGWYRQAPGKERELVAAITRNGGSTYYADSVKGRFTISRDNAKNTVYLLMNSLKPEDTAVYYCNARKKYENYYWGQGTQVTVSS	high polyreactivity
QVQLVDSGGGLVQAGGSLRLSCAASGITITEYAMGWYRQAPGKERELVAVISSVGTMYYADSVKGRFTISRDNAKNTVYFQMNSLKPEDTAVYYCAADYSDDGEYPYWSGSDYWGQGTQVTVSS	low polyreactivity

Sequence	polyreactivity (PSR sort gate)
QVQLVDSGGGLVQAGGSLRLSCAASGLIFGYYDMGWYRQAPGKERELVAAITTGDSTYYADSVKGRFTISRDNAKNTVYLQMTCLKPEDSAVYYCSAYAFWYYESDYWGKGTQVTVSS	low polyreactivity
QVQLVDSGGGLVQAGGSLRLSCAASGLIFSQYAMGWYRQAPGKEREFVARISSSGGSTYYADSVKGRFTISRDNAKNTVYLQMNSLKPEDTAVYYCAAVGGRNIRVWFRNKYDSWGQGTQVTVSS	low polyreactivity
QVQLVDSGGGLVQAGGSLRLSCAASGLIFTYYAMGWYRQAPGKERELVAAINYSGGSTYYADSVKGRFTISRDNAKNSVYLQMNSLKPEDTAVYYCAARRVTQTEGPMGYWGQGTQVTVSS	low polyreactivity
QVQLVDSGGGLVQAGGSLRLSCAASGLTFIRYAMGWYRQAPGKERELVAAITRGGTRTYYADSVKGRFTISRDNAKNTVYLQMNSLKPEDTAVYYCAALSRYGRFDYWGQGTQVTVSS	high polyreactivity
QVQLVDSGGGLVQAGGSLRLSCAASGLTFSKYAMGWYRQAPGKERELVSAISRSGGSTYYADSVKGRFTISRDNAKNTVYLQMNSLKPEDTAVYYCAARRLVGAERPGYDYWGQGTQVTVSS	high polyreactivity
QVQLVDSGGGLVQAGGSLRLSCAASGNIFRANAMGWYRQAPGKERELVAAIRWRGVGTYYADSVKGRFTISRDYAKNTVYLQINSLKPEDTAVYYCAAYVKTGAYDYWGQGTLVTVSS	high polyreactivity
QVQLVDSGGGLVQAGGSLRLSCAASGNTFRIYAMAWYRQAPGKERELVAAISQSGGSTYYADSVKGRFTISRDNAKNTVYLQMNSLKPEDTAVYYCAATGARRKFYYWGQGTQVTVSS	high polyreactivity
QVQLVDSGGGLVQAGGSLRLSCAASGRIFHVYAMGWYRKAPGKERELLADITWSGGSTYYADSVKGRFTISRDNAKNTVYLQMNSLKPEDTAVYYCAAAYYGYARWRGPRKMDYWGQGTQVTVSS	high polyreactivity
QVQLVDSGGGLVQAGGSLRLSCAASGRIFRYYAMGWYRQAPGKERELVAGINQSGGSTYYADSVKGRFTISRDNAKNTVYLQMNSLKPEDTAVYYCAAKVSWPKYDYWGQGTQVTVSS	low polyreactivity
QVQLVDSGGGLVQAGGSLRLSCAASGRIFSRYAMGWYRQAPGKERELVASISYSGGSTNYADSVKGRFTISRDNAKNTFYLQMNSLKPEDTAVYYCAAGQYSYRRRYNYWGQGTQVTVSS	high polyreactivity
QVQLVDSGGGLVQAGGSLRLSCAASGRIFYRYAMGWYRQAPGKERELVATISRGGITNYADSVKGRFTISRDNAKNTVYLEMNSLKPEDTAVYYCNAVYGFRRLFEYEYDYWGQGTQVTVSS	high polyreactivity
QVQLVDSGGGLVQAGGSLRLSCAASGRNFNEYAMGWSRPAPGKERELVAAISSSGDSTYYADSVKGRFTISRDNAKNTVYLQMNSLKPEDTAVYYGAAQVVVWYPYVYFPGSDYWGQGTQVTVSS	low polyreactivity
QVQLVDSGGGLVQAGGSLRLSCAASGRTFGKNVMGWYREAPGKERELVAAISLSGGSTYYADSVKGRFTISRDNAKNTVYLQMNSLKPEDTAVYYCAAAAYGKPWGLDYWGQGTQVTVSS	low polyreactivity
QVQLVDSGGGLVQAGGSLRLSCAASGRTFKPYTMGWYRQAPGKERDLVAAISARGVSTYYADSVKGRFTISRDNAKNTGYLQMNSLKPEDTAVYYCNRVYFIGYRVFPPPMDYWGQGTQVTVSS	high polyreactivity
QVQLVDSGGGLVQAGGSLRLSCAASGRTFNLYAMGWYRQAPGKERELVATIDWTGGSTYYADSVKGRFTISRDNAKNTVYLQMNSLKPEDTAVYYCNADRFADYDYWGQGTQVTVSS	low polyreactivity
QVQLVDSGGGLVQAGGSLRLSCAASGRTFRYYAMGSYRQAPGKERELVAAISGRGGSTYYADSVKGRFTISRDNAKNTVYLLMNSLKPADTAVYYCAKRGYYRSRRYDYWGQGTQVTVSS	high polyreactivity
QVQLVDSGGGLVQAGGSLRLSCAASGRTFSANAMGWYRQAPGKERELVAGITSRGGGTYYADSVKGRFTISRDNAKNTVYLQMNSLKTEDTAVYYGAKASRYWSLYYWGQGTQVTVSS	high polyreactivity
QVQLVDSGGGLVQAGGSLRLSCAASGRTFYGNAMGWYRQAPGKARELVAAINRDGGTYYADSVKGRFTISRDNAKNTVYLQMNSLKPEDTAVYYCNAVKRGIRYGYWGQGTQVTVSS	high polyreactivity
QVQLVDSGGGLVQAGGSLRLSCAASGRTFYPYVMGWYRQPPGKERELVADISWSGGRTYYADSVKGRFTISRDNAKNTVYLQMNSLKPEDTAVYYCAAGYRRRYNYWGQGTQVTVSS	high polyreactivity
QVQLVDSGGGLVQAGGSLRLSCAASGRTIGINPMGWYRQAPGKERELVASITRSVGSTYDADSVKGRFTISRDNAKNTVYLQMNSLKPEDTEVYYCAAEYYTWSYYTKYYYWGQGTQVTVSS	high polyreactivity
QVQLVDSGGGLVQAGGSLRLSCAASGRTIPYYAMGWYRQAPGKERELVAAISSSGGRTYYADSVKGRFTISRDNAKNTVYLQMNSLKPEDTAVYYCNVDAWYPYQGFLVGYYYWGQGTQVTVSS	low polyreactivity
